The target of test [1] is T1, recombinant human IL-6 (human, UniProt P05231 30-212, labeled with radioactive iodine).
T1 construct: Labeled probe in solution, added to wells that carry the synthetic peptides; also called IL-6 ligand; Interleukin-6
Briefly: radioiodinated IL-6 on peptide array.

Test [2] concerns the target T1, recombinant human IL-6. The test is described as follows: radioiodinated IL-6 on peptide array. Here is the method:
Synthetic peptide arrays were constructed in 96-well microtiter plates in accordance with the method set forth in WO 91/02714 (Saxinger), and used to test the binding of recombinant human IL-6 that had been labeled with radioactive iodine (radiolabeling by standard methods). After incubating the radiolabeled IL-6 ligand in a well with each synthetic peptide, a washing step was performed to remove unbound label, and the relative level of radioactivity remaining in each well of the plate was evaluated to determine the relative affinity of each peptide for IL-6 ligand.
This is another data set of the same source.

Read-outs that look alike come from different tables or passages of the source.

As for SLTSDTLYMVRMAAYTDEGGKDGP [Peptide E59], in the test with recombinant human IL-6 [1], the Counts/minute bound turned out to be 1270 counts/minute.

As to SLTTKAVLLVRKFQNS [Peptide B22], the Counts/minute bound with recombinant human IL-6 [2] was found to be 12600 counts/minute.

For the origin of these results see patent US20040092720A1 (US Dept. of Health and Human Services, published 2004).
